Tests used:
Conditions in all cases: both partners purified
[1] = target: rabbit skeletal-muscle F-actin (rabbit, UniProt P68135 1-377); experiment: co-sedimentation; 0.2-3.5 µM tropomyosin with 3 µM F-actin in T buffer (150 mM NaCl, 10 mM Tris-HCl pH 7.5, 2 mM MgCl2), 50 µL, 1 h at room temperature; 670,000 x g, 20 °C, 30 min; SDS-PAGE densitometry; Hill equation fit; apparent Kd
[2] = target: α-actin filament (muscle actin, polymerized from G-actin) (UniProt P68135 1-377); experiment: TIRF microscopy of tropomyosin-decorated single actin filaments; control experiments: the same Tpm isoform labeled with AF488 and with AF568 (0.015 µM of each) mixed with 1 µM G-actin in D buffer, polymerized with 50 mM NaCl for 5-10 min, 10% PEG 300; decorated filaments captured on PLL-PEG/BSA coverslips in microfluidic channels, washed with TIR50 buffer
[3] = target: β-actin filament (cytoskeletal actin, polymerized from G-actin) (UniProt P60709 1-375); experiment: as above

| Kd [1] [nM] | ratio of Tpm in Ch1 (red, AF568)/Ch2 (green, AF488) on the filament, median [2] | ratio of Tpm in Ch1 (red, AF568)/Ch2 (green, AF488) on the filament, median [3] | Binder |
| --- | --- | --- | --- |
| 2370 | 0.7 | 0.7 | Tpm1.6 AF568 (Tpm1.6 labeled at Cys-190 with Alexa Fluor 568 C5 maleimide) (natural protein, Alexa Fluor 568 C5 maleimide on Cys-190 (monomer labeling ratio approximately 95%)) not shown |
| 1210 |  |  | Tpm1.6 AF488 (Tpm1.6 labeled at Cys-190 with Alexa Fluor 488 C5 maleimide) (natural protein, Alexa Fluor 488 C5 maleimide on Cys-190 (monomer labeling ratio approximately 95%)) not shown |
